Laboratory results from article PMC10381965.

Molecular target: CBF1;CCAN (CENP-LN, CENP-OPQU+, CENP-HIK-TW, CENP-C) (Saccharomyces cerevisiae;Saccharomyces …, UniProt P17106;P38907;P38265;Q06675;Q02732;P53298;P38313;Q12493;Q06162;Q12262;Q12748;P47 …, |)
Test: cryo-EM structure (3.4 Å); free C0N3 DNA without octamer; topological entrapment, 25 bp contacted; Binding buffer for IK assembly not given in the material; proteins purified in 20 mM Hepes pH 8.0, 300 mM NaCl, 0.5 mM TCEP

B1: C0N3 153 bp (chimeric CEN3/W601) (dsDNA)
DNA 1: ATAAGTCACATGGTGCCGAGGCCGCTCAATTGGTCGTAGACAGCTCTAGCACCGCTTAAACGCACGTACGCGCTGTCCCCCGCGTTTTAATATTAGTGTATTTGATTTCCGAAAGTTAAAAAAGAAATAGTAAGAAATATATATTTCATTGAA
DNA 2: TTCAATGAAATATATATTTCTTACTATTTCTTTTTTAACTTTCGGAAATCAAATACACTAATATTAAAACGCGGGGGACAGCGCGTACGTGCGTTTAAGCGGTGCTAGAGCTGTCTACGACCAATTGAGCGGCCTCGGCACCATGTGACTTAT
  binding result: binds
